Assay results from US11248019B2, “Trityl-mono-GalNAc compounds and their use” (Hoffmann-La Roche Inc., priority 2016, dated 2022).

Tests used:
Format in all cases: in vivo, C57BL6/J mice
ApoB mRNA [1] = experiment: ApoB mRNA knockdown in liver and kidney by qPCR, single sc dose, sacrifice day 10 (Example 4); details: for ApoB mRNA expression as % of saline, mRNA kidney: day 10, kidney; for ApoB mRNA expression as % of saline, mRNA liver: day 10, liver
Protocol: (§1) Female C57BL6/J mice (5/group appr. 20 g at arrival) were injected subcutaneous (sc) with a single dose saline or 0.25 mg/kg unconjugated LNA-antisense oligonucleotide (compound F) or with 0.25 mg/kg or 0.1 mg/kg of GalNAc conjugated LNA antisense oligonucleotide (Compound C or E of the invention or reference compound G). Blood samples of 50 μl were collected pre-dosing at day minus 6, and post dosing at day 3 and 7. The animals were sacrificed at day 10 and total serum was collected as well as liver and kidney.
(§2) ApoB mRNA knockdown was analyzed by qPCR. In brief, RNA was isolated from homogenized liver and kidney using MagnaPure RNA Isolation and purification system (catalog #03604721001 and #05467535001; Roche) according to the manufacturer's instructions. RT-QPCR was done using Taqman Fast Universal PCR Master Mix 2×(Applied Biosystems Cat #4364103) and Taqman gene expression assay (mApoB, Mn01545150_m1 and mGAPDH #4352339E) following the manufacturers protocol.

[2] = Oligonucleotide content in liver and kidney by ELISA (Example 4); details: for Oligonucleotide content, Kidney / Oligonucleotide content, Liver: day 10
Protocol: as §1
The oligonucleotide content in the liver and kidney was measured using ELISA (see for example Straarup et al 2010 Nucleic Acid Res Vol 38 pp 7100-7111), results are shown in Table 6.

ApoB mRNA [3] = experiment: ApoB mRNA knockdown in liver and kidney by qPCR, single iv dose 0.1 mg/kg, day 7 or 14 (Example 7); details: 0.1 mg/kg single iv dose
Protocol: as §2
(§3) Female C57BL6/J mice (5/group appr. 20 g at arrival) were injected intravenous (iv) with a single dose saline or 0.1 mg/kg of GalNAc conjugated LNA antisense oligonucleotide (Compound J, K, L, B or C of the invention or reference compound M). Blood samples of 50 μl were collected pre-dosing at day minus 6, and post dosing at day 3, 7, 10 and 14. The animals were sacrificed at day 7 or 14 and total serum was collected as well as liver and kidney.
ApoB mRNA knock down was measured as described in example 4.

[4] = Oligonucleotide content in liver and kidney by ELISA (Example 7); details: 0.1 mg/kg single iv dose
Protocol: as §3
The oligonucleotide content in the liver and kidney was measured using ELISA (see for example Straarup et al 2010 Nucleic Acid Res Vol 38 pp 7100-7111), results are shown in Table 16.

ALT in serum (Example 7) = details: 0.1 mg/kg single iv dose
Protocol: as §3
ALT (Alanine aminotransferase) was measured using ABX Pentra ALT CP reagent (A11A01627 Triolab, Brondby, Denmark. The results are shown in table 17.

## 5′-GS^mCSaStStSgSgStSaStSTS^mCSAOcOa-3′ [E]
ApoB mRNA [1]; 0.1 mg/kg single sc dose
  ApoB mRNA expression as % of saline, mRNA kidney: 84.8 % of saline
  ApoB mRNA expression as % of saline, mRNA liver: 60.5 % of saline
ApoB mRNA [1]; 0.25 mg/kg single sc dose
  ApoB mRNA expression as % of saline, mRNA kidney: 51.0 % of saline
  ApoB mRNA expression as % of saline, mRNA liver: 34.9 % of saline
ApoB mRNA [1]; in words, high dose (0.25 mg/kg)
  knock down of ApoB mRNA compared to the GalNAc2 cluster conjugated LNA oligonucleotide (compound G): comparable
ApoB mRNA [1]; in words, single sc dose, day 10
  knock down of ApoB mRNA in the liver compared to unconjugated (naked) oligonucleotide (compound F): improved knock down
[2]; 0.1 mg/kg single sc dose
  Oligonucleotide content, Kidney: 0.094 μg/g tissue
  Oligonucleotide content, Liver: 0.021 μg/g tissue
[2]; 0.25 mg/kg single sc dose
  Oligonucleotide content, Kidney: 0.243 μg/g tissue
  Oligonucleotide content, Liver: 0.069 μg/g tissue
[2]; in words
  uptake in liver and kidney compared to the unconjugated oligonucleotide (compound F): enhanced uptake in the liver and reduced uptake in the kidney

## 5′-cOaOGS^mCSaStStSgSgStSaStSTS^mCSA-3′ [B]
ApoB mRNA [3]; Day 7, kidney
  ApoB mRNA/mGAPDH expression as % of saline, Avg kidney: 62.5 % of saline
ApoB mRNA [3]; Day 7, liver
  ApoB mRNA/mGAPDH expression as % of saline, Avg liver: 49.2 % of saline
ApoB mRNA [3]; Day 14, kidney
  ApoB mRNA/mGAPDH expression as % of saline, Avg kidney: 100.3 % of saline
ApoB mRNA [3]; Day 14, liver
  ApoB mRNA/mGAPDH expression as % of saline, Avg liver: 112.8 % of saline
[4]; Day 7, kidney tissue
  Oligonucleotide content, Avg kidney: 0.353 µg/g
[4]; Day 7, liver tissue
  Oligonucleotide content, Avg liver: 0.161 µg/g
[4]; Day 14, kidney tissue
  Oligonucleotide content, Avg kidney: 0.152 µg/g
[4]; Day 14, liver tissue
  Oligonucleotide content, Avg liver: 0.066 µg/g
ALT in serum (Example 7); Day 7
  ALT levels (U/L) in serum as % of saline: 177.3 % of saline
ALT in serum (Example 7); Day 14
  ALT levels (U/L) in serum as % of saline: 108.5 % of saline
